Assay results taken from US20100255010A1 (Genentech, published 2010).
Positions count from the first letter of the chain named.

B1: D1.5-115, mIgG2A (antibody, V domains shown)
VH: EVQLVESGGGLVQPGGSLRLSCAASGFTFTGNWIHWVRQAPGKGLEWVGEISPSGGYTDYADSVKGRFTISADTSKNTAYLQMNSLRAEDTAVYYCARESRVSYEAAMDYWGQGTLVTVSS
VL: DIQMTQSPSSLSASVGDRVTITCRASQEIFPDVAWYQQKPGKAPKLLIYSASSLYSGVPSRFSGSGSGTDFTLTISSLQPEDFATYYCQQAAPTPYTFGQGTKVEIKR
B2: D1.5-113, mIgG2A (antibody, V domains shown)
VH: B1 VH
VL: DIQMTQSPSSLSASVGDRVTITCRASQSLLASHDGTPWVAWYQQKPGKAPKLLIYDASYLYSGVPSRFSGSGSGTDFTLTISSLQPEDFATYYCQQSTFAPYTFGQGTKVEIKR
B3: D1.5-121, mIgG2A (antibody, V domains shown)
VH: B1 VH
VL: B1 VL with E28D, I29V, F30G, P31S, V33L, S53Y, A91S, A92D, T94E
B4: DL11b (bispecific antibody, V domains shown)
VH: B1 VH with F29L, T30S, N32D, V48L, P53A, S54A, Y104F
VL: B1 VL with E28N, F30A, P31T, S53F, A91S, A92E, T94E
B5: D1.5-116, mIgG2A (antibody, V domains shown)
VH: B1 VH
VL: B1 VL with E28A, F30A, P31S, S53F, A91S, A92E, T94E

Tests used:
HER3-ECD-Fc = target: T1, HER3-ECD-Fc (human, UniProt P21860 20-643, limits assumed); test: radioligand blocking assay: antibody pre-bound to captured HER3-ECD-Fc, then 125I-HRG added; bound counts as % of control
T1 construct: extracellular domain; also called HER3-FC; HER3-IgG

[1] = target: HER3 (form of the protein in the assay not stated) (UniProt P21860 20-643, limits assumed); test: SPR BIAcore

Binder	IC50 (read off the curve) (HER3-ECD-Fc)	binding result [1]
B1	~3 nM	
B2	~3 nM	
B3	~5 nM	
B4		binds
B5	~4 nM	
